Data published in paper doi:10.1101/655282.
Where no end group is shown, it is not given here. [ ]: non-standard residue; d: D form. pS = N[C@@H](COP(=O)(O)O)C(=O)O

Target: SUMO1 (UniProt P63165)
Sequence of UniProt P63165 (P63165 1-97): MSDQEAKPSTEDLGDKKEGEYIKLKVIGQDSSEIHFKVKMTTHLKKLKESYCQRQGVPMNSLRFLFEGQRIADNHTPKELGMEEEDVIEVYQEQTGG

B1: IE2 N-Terminal Domain (IE2-NTD), FITC labelled (peptide)
peptide: PLIKQEDIKPEPDFTIQYRNKIIDTAGCIVISDSEEEQG
modifications: also: FITC label, site not given here
rate of increase in anisotropy, real-time SUMOylation assay with SUMO1: 0.00012 min⁻¹

B2: phosphorylated IE2-NTD (IE2-ppNTD) (peptide)
peptide: PLIKQEDIKPEPDFTIQYRNKIIDTAGCIVI[pS]D[pS]EEEQG
modifications: also: FITC label, site not given here
rate of increase in anisotropy, real-time SUMOylation assay with SUMO1: 0.00021 min⁻¹
